# B1: MBP-Atg11(522-583) (domain or fragment, S. pombe, UniProt O14261 522-583, looked up)
# chain: SSQPFYRVSPSIVPLNVIRKLTNRKTSFTDSHILRLQDEVNQLRNELDLVNKRNEDLLIELQ
# Columns and labels:
# SEC = target: the molecule itself; test: SEC
# HA-fused Atg1(593-830) = HA-fused Atg1(593-830) (S. pombe, UniProt Q9Y7T4 593-830); test: pull-down
# HA-fused Atg1(593-830), sequence (Q9Y7T4 593-830): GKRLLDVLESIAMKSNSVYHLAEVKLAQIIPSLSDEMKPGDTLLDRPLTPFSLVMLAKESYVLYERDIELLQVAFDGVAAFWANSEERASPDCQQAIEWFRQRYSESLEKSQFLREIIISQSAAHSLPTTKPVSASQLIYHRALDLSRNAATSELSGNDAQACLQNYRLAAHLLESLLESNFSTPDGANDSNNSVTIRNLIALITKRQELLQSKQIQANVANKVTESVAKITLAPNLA
binder,measurement,setting,value
B1,stoichiometry N,SEC,2
"SSQPFYRVSPSIVPLNVIRKLTN (domain or fragment, S. pombe, UniProt O14261 522-544, looked up) [GST-fused Atg11(522-544)]",binding result,HA-fused Atg1(593-830),binds
